Test results published in patent US20040219163.

Molecular target: prostate-specific antigen (PSA) (UniProt P07288)
Sequence (P07288 25-261): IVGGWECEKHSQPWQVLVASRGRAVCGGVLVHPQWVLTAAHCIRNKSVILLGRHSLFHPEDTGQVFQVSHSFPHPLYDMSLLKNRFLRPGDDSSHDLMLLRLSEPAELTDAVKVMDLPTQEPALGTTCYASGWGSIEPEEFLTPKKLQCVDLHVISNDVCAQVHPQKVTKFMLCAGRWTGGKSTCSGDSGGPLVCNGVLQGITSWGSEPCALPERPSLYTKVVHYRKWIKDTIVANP

Substance: Human glandular kallikrein (hK2)
- PSA enzymatic activity on chromogenic substrate S-2586 (absorbance at 405 nm); 100 ng hK2 added to 2.5 ug PSA from L1/PSA/IL2 supernatant: The activity of PSA is increased 500% when incubated with hK2
